Legend:
[1] = target: T1, mouse 4-1BB protein (extracellular domain) (mouse, UniProt P20334 24-187); experiment: ELISA, coated mouse 4-1BB; Ab 2 ug/ml
T1 construct: extracellular domain; also called mouse 4-1BB-his; mouse 4-1BB-hFc protein
T1 sequence (looked up): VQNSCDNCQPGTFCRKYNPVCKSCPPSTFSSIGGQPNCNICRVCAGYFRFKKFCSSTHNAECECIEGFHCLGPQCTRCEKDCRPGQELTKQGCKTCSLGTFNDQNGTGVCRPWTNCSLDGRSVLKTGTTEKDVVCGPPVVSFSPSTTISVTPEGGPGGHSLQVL
Method: (§1) The purified immunogen A (4-1BB-hFc), monkey 4-1BB-his, and mouse 4-1BB-his obtained in Example 1 [for the preparation method, see step 1 of Example 1, preparation of immunogen A], of which the extracellular domain of monkey-derived 4-1BB protein (purchased from ACRO biosystems), the extracellular domain of mouse 4-1BB protein (purchased from sino biological) or other immune detection point proteins respectively were diluted with PBS to a final concentration of 1.0 μg/mL, then added with […] per well to 96-well ELISA plate. It was sealed with plastic film and incubated at 4° C. overnight. The next day, the plate was washed twice with the plate-washing solution [PBS containing 0.01% (v/v) Tween20] and blocking solution [PBS containing 0.01% (v/v) Tween 20 and 1% (v/v) BSA] was added and blocked at room temperature for 2 hours. The blocking solution was discarded and 100 μl of the purified 4-1BB antibody obtained in Example 2 was added per well. After incubated at 37° C. for 2 hours, the plate was washed 3 times with a plate-washing solution [PBS containing 0.01% (v/v) Tween20]. A secondary antibody (purchased from Sigma) labeled with HRP (horseradish peroxidase) was added, and after incubated at 37° C. for 2 hours, the plate was washed 3 times with a plate-washing solution [PBS containing 0.01% (v/v) Tween20]. 100 μl of TMB substrate was added per well. After incubated for 30 minutes at room temperature, 100 μl of stop buffer (1.0N HCl) was added per well. The A450 nm values were read using an ELISA plate reader (SpectraMax 384plus, Molecular Device).

[2] = target: T1, mouse 4-1BB protein (extracellular …); experiment: ELISA, coated mouse 4-1BB; Ab 10 ug/ml
Method: as §1

[3] = target: T1, mouse 4-1BB protein (extracellular …); experiment: ELISA, coated mouse 4-1BB; Ab 0.4 ug/ml
Method: as §1

[4] = target: T1, mouse 4-1BB protein (extracellular …); experiment: ELISA, coated mouse 4-1BB; Ab 0.08 ug/ml
Method: as §1

[5] = target: T1, mouse 4-1BB protein (extracellular …); experiment: ELISA, coated mouse 4-1BB; Ab 0.016 ug/ml
Method: as §1

monkey 4-1BB-his protein [6] = target: T2, monkey 4-1BB-his protein (monkey); experiment: ELISA, coated monkey 4-1BB-his; Ab 2 ug/ml
T2 construct: extracellular domain; Bought protein; also called extracellular domain of monkey-derived 4-1BB protein
Method: as §1

[7] = target: T1, mouse 4-1BB protein (extracellular …); experiment: ELISA, coated mouse 4-1BB; Ab 0.0001 ug/ml
Method: as §1

[8] = target: T1, mouse 4-1BB protein (extracellular …); experiment: ELISA, coated mouse 4-1BB; Ab 0.0006 ug/ml
Method: as §1

monkey 4-1BB-his protein [9] = target: T2, monkey 4-1BB-his protein; experiment: ELISA, coated monkey 4-1BB-his; Ab 10 ug/ml
Method: as §1

monkey 4-1BB-his protein [10] = target: T2, monkey 4-1BB-his protein; experiment: ELISA, coated monkey 4-1BB-his; Ab 0.08 ug/ml
Method: as §1

monkey 4-1BB-his protein [11] = target: T2, monkey 4-1BB-his protein; experiment: ELISA, coated monkey 4-1BB-his; Ab 0.016 ug/ml
Method: as §1

monkey 4-1BB-his protein [12] = target: T2, monkey 4-1BB-his protein; experiment: ELISA, coated monkey 4-1BB-his; Ab 0.0001 ug/ml
Method: as §1

monkey 4-1BB-his protein [13] = target: T2, monkey 4-1BB-his protein; experiment: ELISA, coated monkey 4-1BB-his; Ab 0.0032 ug/ml
Method: as §1

[14] = target: T3, monkey 4-1BB on CHOK1 cells (monkey); experiment: FACS on CHOK1-c4-1BB cells, Alexa 488 secondary antibody, average fluorescence intensity
T3 construct: whole, on cells; also called CHOK1-c4-1BB
Excerpt: The pIRES plasmid carrying the full-length gene of monkey-derived […] (the preparation method is the same as the preparation method of the pCpC vector carrying the human-derived IgG Fc fragment (hFc) in “Preparation of immunogen A” of the step (1) in Example 1, in which the database accession number of the amino acid sequence of the extracellular region of monkey 4-1BB protein (Phe19-Thr239) is G7PSE7) was transfected into CHOK1 cell line to obtain CHOK1 stable transfected cell line containing monkey 4-1BB (herein referred to as CHOK1-c4-1BB stable cell line). The CHOK1-h4-1BB stable cell line and the CHOK1-c4-1BB stable cell line were expanded and cultivated to 90% confluence in T-75 cell culture flasks. The medium was exhausted, and washed twice with HBSS buffer (Hanks Balanced Salt Solution, purchased from Invitrogen), and then the cells were treated and collected with enzyme-free cell dissociation solution (Versene solution, purchased from Life Technology). The cells were washed twice with HBSS buffer, and after cell counting, the cells were diluted with HBSS buffer to 2×10⁶ cells per ml, and 1% goat serum blocking solution was added, the percentage being the mass percentage. It was incubated on ice for 30 minutes, and then washed twice with HBSS buffer by centrifugation. The collected cells were suspended in FACS buffer (HBSS containing 1% BSA, the percentage was the mass percentage) to 2×10⁶ cells/mL, and 100 μl per well was added to a 96-well FACS reaction plate. The purified 4-1BB antibody test sample obtained in Example 2 was added, 100 microliters per well and incubated on ice for 2 hours. […] It was washed three times with FACS buffer by centrifugation, and 100 μl of fixative [4% (v/v) paraformaldehyde] per well was added to suspend cells, and washed twice with FACS buffer after 10 minutes by centrifugation. The cells were suspended with 100 microliters of FACS buffer, and the results were detected and analyzed with FACS (FACS Calibur, purchased from BD).

monkey 4-1BB-his protein [15] = target: T2, monkey 4-1BB-his protein; experiment: ELISA: monkey 4-1BB-his coated at 1.0 µg/mL, antibody titrated, HRP secondary antibody, OD450
Method: as §1

B1: 113F6C6 (antibody, V domains shown)
VH: QVQLVESGGGVVQPGRSLRLSCAASGLTFSSYGMHWVRQAPGKGLEWVAVIWYDGSNKYYADSVKGRFTISRDNSKNTLYLQMNSLRAEDTAVYYCAREEVLWFGELSYNYYYGMDVWGQGTTVTVSS
VL: DIQMTQSPSSLSASVGDRVTITCRASQGISNYLAWYQQKPGKVPKLLIYAASTLQSGVPSRFSGSGSGTDFTLTISSLQPEDVATYYCQKYNSVPLTFGGGTKVEIK
notes: also called 4-1BB fully human antibody 113F6C6; 113F6F6
With B1 the OD450 nm [1] was 0.18 OD450 nm, the OD450 nm [2] was 0.25 OD450 nm and the OD450 nm [3] was 0.08 OD450 nm. The OD450 nm [4] was 0.05 OD450 nm, the OD450 nm [5] was 0.05 OD450 nm and the OD450 nm (monkey 4-1BB-his protein [6]) was 2.2 OD450 nm. It also gave an OD450 nm [7] of 0.05 OD450 nm, an OD450 nm [8] of 0.05 OD450 nm and an OD450 nm (monkey 4-1BB-his protein [9]) of 2.36 OD450 nm. It also gave an OD450 nm (monkey 4-1BB-his protein [10]) of 1.58 OD450 nm, an OD450 nm (monkey 4-1BB-his protein [11]) of 0.47 OD450 nm and an OD450 nm (monkey 4-1BB-his protein [12]) of 0.07 OD450 nm. The OD450 nm (monkey 4-1BB-his protein [13]) was 0.14 OD450 nm, the “EC50 (read off the curve)” value [14] was ~0.1 µg/mL and the “EC50 (read off the curve)” value (monkey 4-1BB-his protein [15]) was ~0.05 µg/mL.

Reference: patent US20200347144A1 (SHANGHAI HYAMAB BIOTECH, published 2020)
